Data published in PMC12090219, “Reversible Substrate-Specific Photocontrol of the Chemotherapeutic Asparaginase(-Glutaminase) from Escherichia coli” (ACS Catalysis, 2025).
Changes are numbered by the printed parent chain. Values belong to the binder of their own block, whether it stands above or below them.

What was measured:
[1] = target: T1, wild-type Escherichia coli type II asparaginase (E. coli), P00805; experiment: SEC-MALS; analytical size-exclusion chromatography with static light scattering detection; 40 uM EcAII on S200 10/300 GL in 50 mM Tris/HCl pH 7.0, 100 mM NaCl; detection at 280 and 334 nm; details: remark: other sources report otherwise
T1 chain: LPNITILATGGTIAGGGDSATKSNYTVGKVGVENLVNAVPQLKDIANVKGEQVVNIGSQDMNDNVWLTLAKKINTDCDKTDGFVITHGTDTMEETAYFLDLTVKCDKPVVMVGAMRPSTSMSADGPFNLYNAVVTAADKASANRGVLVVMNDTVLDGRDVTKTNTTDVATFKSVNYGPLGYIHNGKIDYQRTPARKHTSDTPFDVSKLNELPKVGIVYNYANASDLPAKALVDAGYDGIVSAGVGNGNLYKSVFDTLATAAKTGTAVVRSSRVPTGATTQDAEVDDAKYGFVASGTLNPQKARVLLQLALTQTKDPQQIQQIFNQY

[2] = target: the molecule itself; experiment: as above

stoichiometry N [1]: 4
B1: wild-type Escherichia coli type II asparaginase, P00805 23-348 (enzyme)
chain: T1 chain

B2: EcAII-S19AzoF (enzyme, E. coli)
chain: T1 chain with S19F
modifications: phenylalanine-4'-azobenzene (AzoF) at position 19
notes: type II L-asparaginase (EcAII) from E. coli, gene ansB, UniProt P00805, with the unnatural amino acid AzoF in place of S19; The new residue is the unnatural amino acid phenylalanine-4'-azobenzene; the as-isolated state is ~100% E; also called EcAII with phenylalanine-4'-azobenzene at position S19
stoichiometry N [2]: 4

B3: EcAII-T21AzoF (enzyme, E. coli)
chain: T1 chain with T21F
modifications: phenylalanine-4'-azobenzene (AzoF) at position 21
notes: type II L-asparaginase (EcAII) from E. coli, gene ansB, UniProt P00805, with the unnatural amino acid AzoF in place of T21; The new residue is the unnatural amino acid phenylalanine-4'-azobenzene; the as-isolated state is ~100% E; also called EcAII with phenylalanine-4'-azobenzene at position T21
stoichiometry N [2]: 4
